One series has as its target DHX9 (UniProt Q08211). Kind of series: Kd (EC50 corrected by depletion factor). How it is done: (§1)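 Competition-binding assay: HEK293-FT cell lysate (2.5 mg protein) pre-incubated 1 h at 4°C with free motif-containing RNA oligos (0 to 30 µM, 12 doses), then pulled down with the same 5'-amino-C6 RNA oligos immobilised on NHS-Sepharose beads (30 min, 4°C). Bound proteins were quantified by label-free LC-MS/MS and normalised to the water control. EC50 came from a four-parameter log-logistic fit; Kd = EC50 x depletion factor. Random/reversed control probes are dropped.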

A further series addresses T1, CELF1 (UniProt Q92879).
T1 sequence: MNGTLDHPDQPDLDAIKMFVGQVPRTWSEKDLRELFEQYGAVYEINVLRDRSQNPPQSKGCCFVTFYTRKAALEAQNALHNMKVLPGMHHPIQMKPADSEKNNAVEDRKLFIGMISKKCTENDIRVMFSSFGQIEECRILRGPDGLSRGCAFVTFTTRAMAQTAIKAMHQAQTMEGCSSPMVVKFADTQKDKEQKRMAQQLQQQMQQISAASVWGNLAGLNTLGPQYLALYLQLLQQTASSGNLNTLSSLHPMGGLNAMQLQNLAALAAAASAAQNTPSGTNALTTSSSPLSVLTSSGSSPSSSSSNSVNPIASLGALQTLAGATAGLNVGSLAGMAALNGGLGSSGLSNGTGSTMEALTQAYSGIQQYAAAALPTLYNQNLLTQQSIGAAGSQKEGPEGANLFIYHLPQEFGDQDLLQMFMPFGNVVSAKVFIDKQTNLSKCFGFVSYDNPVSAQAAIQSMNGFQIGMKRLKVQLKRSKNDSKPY
Kind of series: Kd (EC50 corrected by depletion factor). How it is done: as §1

Series [1] has as its target T2, ZCCHC8 (UniProt Q6NZY4).
T2 sequence: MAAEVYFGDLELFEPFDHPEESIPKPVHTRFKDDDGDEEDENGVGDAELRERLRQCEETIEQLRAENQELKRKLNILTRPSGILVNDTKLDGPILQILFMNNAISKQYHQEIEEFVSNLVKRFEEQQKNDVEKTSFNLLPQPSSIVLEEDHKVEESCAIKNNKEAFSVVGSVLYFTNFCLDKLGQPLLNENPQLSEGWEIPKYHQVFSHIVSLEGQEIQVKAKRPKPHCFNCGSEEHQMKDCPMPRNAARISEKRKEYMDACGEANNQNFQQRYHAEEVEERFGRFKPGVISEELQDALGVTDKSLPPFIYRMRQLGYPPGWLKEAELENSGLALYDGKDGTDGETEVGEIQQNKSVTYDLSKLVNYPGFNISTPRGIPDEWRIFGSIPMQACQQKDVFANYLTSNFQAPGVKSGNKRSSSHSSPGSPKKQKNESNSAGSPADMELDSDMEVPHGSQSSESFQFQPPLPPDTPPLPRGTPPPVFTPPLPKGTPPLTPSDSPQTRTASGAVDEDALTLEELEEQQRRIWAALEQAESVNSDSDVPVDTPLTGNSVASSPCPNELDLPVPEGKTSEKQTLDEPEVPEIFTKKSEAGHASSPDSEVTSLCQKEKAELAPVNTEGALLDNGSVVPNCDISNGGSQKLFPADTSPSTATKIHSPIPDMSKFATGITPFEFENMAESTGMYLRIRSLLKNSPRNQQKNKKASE
Kind of series: Kd (EC50 corrected by depletion factor). The method, then: as §1

Another series deals with PHAX (UniProt Q9H814). Kind of series: Kd (EC50 corrected by depletion factor). How it is done:
as §1

For another series, the target named is ZC3HAV1 (UniProt Q7Z2W4). The series is described as follows: Kd (EC50 corrected by depletion factor). The method, then:
as §1

The next series concerns the target T3, CELF2 (UniProt O95319).
T3 sequence: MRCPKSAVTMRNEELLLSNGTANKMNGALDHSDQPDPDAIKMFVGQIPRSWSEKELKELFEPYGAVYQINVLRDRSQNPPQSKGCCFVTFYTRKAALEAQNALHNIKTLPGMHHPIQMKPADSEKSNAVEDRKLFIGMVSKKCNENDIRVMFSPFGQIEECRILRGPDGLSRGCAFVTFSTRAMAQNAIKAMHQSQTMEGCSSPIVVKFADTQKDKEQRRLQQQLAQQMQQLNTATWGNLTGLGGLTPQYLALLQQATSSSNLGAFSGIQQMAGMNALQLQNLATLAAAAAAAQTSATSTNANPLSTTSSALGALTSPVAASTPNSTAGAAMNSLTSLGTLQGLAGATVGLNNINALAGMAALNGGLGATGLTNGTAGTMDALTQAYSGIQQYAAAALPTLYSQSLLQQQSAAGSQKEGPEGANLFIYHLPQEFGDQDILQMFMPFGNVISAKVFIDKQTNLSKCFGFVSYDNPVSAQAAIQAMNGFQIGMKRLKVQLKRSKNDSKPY
The series is described as follows: Kd (EC50 corrected by depletion factor). How it is done: as §1

The target in a further series is T4, LIN28B (UniProt Q6ZN17).
T4 sequence: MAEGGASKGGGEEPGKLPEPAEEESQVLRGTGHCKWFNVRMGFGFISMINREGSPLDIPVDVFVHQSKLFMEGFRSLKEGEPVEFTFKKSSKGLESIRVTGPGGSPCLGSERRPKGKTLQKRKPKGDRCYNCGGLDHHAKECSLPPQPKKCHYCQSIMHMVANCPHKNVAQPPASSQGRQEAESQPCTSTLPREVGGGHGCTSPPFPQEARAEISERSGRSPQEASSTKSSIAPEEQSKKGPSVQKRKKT
Kind of series: Kd (EC50 corrected by depletion factor). How it is done: as §1

The target in series [2] is T2, ZCCHC8. The series is described as follows: EC50 of free RNA motif oligo competing protein binding to immobilised probe. The method in brief: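 HEK293-FT lysate (2.5 mg protein/well) was pre-incubated 1 h at 4°C with free RNA oligos (0 nM to 30 μM), then 30 min at 4°C with the same 5′-amino-C6 oligos coupled to NHS-Sepharose beads. Bound proteins were quantified by label-free LC-MS/MS in three biological replicates and two independent experiments, and normalised to the water control. EC50 came from a four-parameter log-logistic fit; Kd is EC50 times a protein-dependent depletion factor.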

This passage reports Kd and EC50 results from the supplement of paper PMC6379048.

Sequence of DHX9 (Q08211 whole entry): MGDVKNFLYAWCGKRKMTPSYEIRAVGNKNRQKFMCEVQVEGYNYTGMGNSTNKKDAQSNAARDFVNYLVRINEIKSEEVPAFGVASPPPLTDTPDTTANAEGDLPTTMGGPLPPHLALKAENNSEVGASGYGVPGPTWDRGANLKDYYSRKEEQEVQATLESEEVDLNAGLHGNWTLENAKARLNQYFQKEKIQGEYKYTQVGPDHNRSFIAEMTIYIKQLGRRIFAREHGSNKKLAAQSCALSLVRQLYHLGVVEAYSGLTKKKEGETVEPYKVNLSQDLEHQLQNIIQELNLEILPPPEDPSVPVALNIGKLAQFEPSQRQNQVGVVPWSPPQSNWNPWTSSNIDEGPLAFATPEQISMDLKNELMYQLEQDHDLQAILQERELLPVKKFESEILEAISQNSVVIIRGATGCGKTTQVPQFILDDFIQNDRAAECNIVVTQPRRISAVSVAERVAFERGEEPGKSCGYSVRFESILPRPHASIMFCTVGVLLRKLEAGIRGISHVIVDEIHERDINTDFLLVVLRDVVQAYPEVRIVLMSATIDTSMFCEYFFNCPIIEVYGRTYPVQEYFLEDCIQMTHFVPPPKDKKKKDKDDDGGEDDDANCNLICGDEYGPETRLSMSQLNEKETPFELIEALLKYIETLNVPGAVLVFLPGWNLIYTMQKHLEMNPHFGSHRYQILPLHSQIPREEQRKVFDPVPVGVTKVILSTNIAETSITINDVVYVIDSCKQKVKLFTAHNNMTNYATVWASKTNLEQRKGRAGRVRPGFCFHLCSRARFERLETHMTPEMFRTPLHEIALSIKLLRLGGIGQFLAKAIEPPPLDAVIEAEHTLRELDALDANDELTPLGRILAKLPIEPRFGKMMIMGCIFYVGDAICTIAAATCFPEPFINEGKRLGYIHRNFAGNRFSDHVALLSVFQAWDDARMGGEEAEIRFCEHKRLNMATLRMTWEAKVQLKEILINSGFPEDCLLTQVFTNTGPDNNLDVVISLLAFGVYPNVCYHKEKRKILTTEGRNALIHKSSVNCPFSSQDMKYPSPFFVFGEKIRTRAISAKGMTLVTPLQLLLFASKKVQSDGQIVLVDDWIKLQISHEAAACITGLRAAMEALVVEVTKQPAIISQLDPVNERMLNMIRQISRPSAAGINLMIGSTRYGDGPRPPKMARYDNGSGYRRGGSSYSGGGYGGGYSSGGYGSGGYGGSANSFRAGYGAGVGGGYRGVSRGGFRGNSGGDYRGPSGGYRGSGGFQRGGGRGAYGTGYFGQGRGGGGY
Sequence of ZC3HAV1 (Q7Z2W4 whole entry): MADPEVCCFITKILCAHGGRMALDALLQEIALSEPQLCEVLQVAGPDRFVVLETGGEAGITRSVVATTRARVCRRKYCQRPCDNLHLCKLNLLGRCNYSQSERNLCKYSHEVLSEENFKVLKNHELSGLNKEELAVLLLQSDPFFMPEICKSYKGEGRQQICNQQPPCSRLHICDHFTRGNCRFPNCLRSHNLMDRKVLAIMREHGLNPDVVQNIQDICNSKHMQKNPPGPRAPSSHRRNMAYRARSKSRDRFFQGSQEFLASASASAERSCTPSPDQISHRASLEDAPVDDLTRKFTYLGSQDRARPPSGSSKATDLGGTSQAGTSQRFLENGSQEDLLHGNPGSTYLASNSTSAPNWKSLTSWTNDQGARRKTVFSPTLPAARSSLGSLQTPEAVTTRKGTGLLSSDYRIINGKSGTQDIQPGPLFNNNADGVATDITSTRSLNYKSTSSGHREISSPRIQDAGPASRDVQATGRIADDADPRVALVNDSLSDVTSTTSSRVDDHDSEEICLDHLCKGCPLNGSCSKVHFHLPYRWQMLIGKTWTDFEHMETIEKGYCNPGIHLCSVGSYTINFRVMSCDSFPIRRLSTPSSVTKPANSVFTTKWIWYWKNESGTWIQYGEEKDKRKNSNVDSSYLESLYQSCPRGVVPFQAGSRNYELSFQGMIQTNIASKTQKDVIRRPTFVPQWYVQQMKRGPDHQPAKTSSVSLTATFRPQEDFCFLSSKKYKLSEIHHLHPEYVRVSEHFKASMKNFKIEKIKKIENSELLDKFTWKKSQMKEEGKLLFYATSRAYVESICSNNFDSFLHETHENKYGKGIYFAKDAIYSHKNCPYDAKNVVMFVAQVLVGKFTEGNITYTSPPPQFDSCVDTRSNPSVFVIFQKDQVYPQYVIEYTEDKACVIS
Sequence of PHAX (Q9H814 whole entry): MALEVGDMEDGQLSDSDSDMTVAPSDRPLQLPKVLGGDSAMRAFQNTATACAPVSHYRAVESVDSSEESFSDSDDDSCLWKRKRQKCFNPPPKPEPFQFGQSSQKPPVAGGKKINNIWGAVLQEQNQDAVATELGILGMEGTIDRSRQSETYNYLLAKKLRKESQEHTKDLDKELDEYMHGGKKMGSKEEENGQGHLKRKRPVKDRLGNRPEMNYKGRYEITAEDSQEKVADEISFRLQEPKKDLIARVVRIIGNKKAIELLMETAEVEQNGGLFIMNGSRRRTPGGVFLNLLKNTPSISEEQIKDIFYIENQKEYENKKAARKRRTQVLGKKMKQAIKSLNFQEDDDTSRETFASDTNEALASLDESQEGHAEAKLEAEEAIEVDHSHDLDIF

On to AAUAAA, for which the Kd (in general, a measure of binding affinity in units of concentration) with DHX9 was 1.84 µM; with CELF1 it was 0.162 µM; in the series with ZCCHC8 [1], 0.19 µM; with PHAX, 15.5 µM; with ZC3HAV1, 0.776 µM; with CELF2 it was 0.114 µM. In addition, the Kd with LIN28B turned out to be 0.61 µM. Also, the EC50 (in general, the concentration at which the effect is half-maximal) in the series with ZCCHC8 [2] worked out at 2.46 µM.

CUGUCCU: the Kd worked out at 0.155 µM in the series with DHX9; 3.66 µM with CELF1; 1.74 µM with ZCCHC8 [1]; 0.533 µM with PHAX; 0.867 µM with ZC3HAV1; 0.948 µM in the series with CELF2. In the series with LIN28B, the Kd stood at 1.22 µM. Moreover, in the series with ZCCHC8 [2], the EC50 was determined as 3.11 µM.

Regarding UAUUUAU, the Kd worked out at 1.23 µM with DHX9; 0.35 µM in the series with CELF1; 0.2 µM in the series with ZCCHC8 [1]; 5.07 µM in the series with PHAX; 4.31 µM with ZC3HAV1; 0.283 µM with CELF2. For the same sequence, the dissociation constant Kd in the series with LIN28B was determined as 1.1 µM. In addition, in the series with ZCCHC8 [2], the concentration giving a half-maximal response (EC50) was determined as 0.615 µM.
